Data reported in the supplement of paper PMC12764529.
± gives the half width of the 95% confidence interval.

Columns and labels:
[1] = folding stability dG unfold (combined trypsin and chymotrypsin); higher = more stable
How it was run: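 How resistant each design was to proteolysis was captured as K50, inferred by Bayesian fitting of sequencing counts. Unfolding free energy was then derived relative to a sequence-predicted unfolded-state K50 and a shared folded-state K50, per protease or combined. Digestion used trypsin and chymotrypsin at 11 threefold-diluted concentrations plus a no-protease condition, on mini-proteins under 80 residues without cysteine in a PA-tagged cDNA display construct. Designs were kept only when AlphaFold2 dimer inter-PAE was above 15.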

[2] = folding stability dG unfold from trypsin proteolysis; higher = more stable
Procedure: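 Folding stability of de novo designed mini-proteins (<80 aa, no Cys; designed by TrROS, TrMRF, ProteinMPNN and the joint model) was measured by cDNA display proteolysis with trypsin and chymotrypsin. Each protease was used at 11 concentrations in a threefold dilution series plus a no-protease condition. K50 was inferred by Bayesian fitting of sequencing counts, and dG unfold was derived against a sequence-predicted unfolded-state K50 (Tsuboyama et al. method). Sequences shown include variable-length N-terminal GS-type padding (SAGGSAGG...) inside a display construct carrying a PA tag. Rows were kept only if the AF2 dimer inter-PAE was >15, to exclude likely homo-oligomers.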

| Sequence | folding stability dG unfold [1] [kcal/mol] | folding stability dG unfold [2] [kcal/mol] |
| --- | --- | --- |
| SAGGSAGGSAGMVFPVDGKEVVIDRGADDALRVTVFGPDGSASEAVFPGKDIPTVLKALSSAGGSAGGSAGG [r11_934_TrMRF] | < -1 | -0.23 ± 0.24 |
| SAGGSAGGSAGPEIVLEGKPVELEVVEVGDKPVLIARFPDHYVVIDPEPDVIRLFSSEELSAGGSAGGSAGG [r11_9_TrMRF] | -0.449 ± 0.11 | -0.0154 ± 0.018 |
| SAGGSTTITVPEEELEKKTGIPLGTPPEEVARKLDPVAKVTVTAVSSEKGPNGEPKRTVTFEVTPPQLSAGG [r13_723_JUSTAS] | < -1 | -0.236 ± 0.14 |
| SAGGSAGGSAGKSPSESEVVITPETGVVEENGVKIKVTLTITTYSPSSTVTSTTKDPKLLSAGGSAGGSAGG [r11_551_JUSTAS] | -0.356 ± 0.15 | -0.0836 ± 0.045 |
| SAGPKNAKPIGTVRIRNPNGRKINIMQWPNPIMVHIKPPDGKKREVPIRGAPMEEILDELAEDGWEVEPSAG [r5_613_TrROS] | < -1 | -0.489 ± 0.63 |
| SAGGSAGGSENNIVIKMKMEMPNQEMKFRFPIPADKLKDALKEGKPIKFPNGMNVRITEIIPVSAGGSAGGS [r12_432_TrROS] | < -1 | -0.864 ± 0.81 |
| SAMLVVLKDPKTGKLILVDPEQLSPEYLERGVEPVREIPPLEVVEVESEEEAEEIRKKYPEKILVTLGPSAG [r14_638_JUSTAS] | -0.121 ± 0.26 | 0.68 ± 0.1 |
| SAGGSAEPPVKEIAEKLIKKSKKPIIATVVEKKKDGYLVTKVKYIPNTGKPIIKVKKITPEELKKKSAGGSA [r15_156_TrMRF] | -0.785 ± 0.7 | 0.159 ± 0.097 |
| SAGGSAGGSAGMPPNTVVLRESLEPGRVVLTLAVVTPGSVASVEVTEEFPVVPGTGVVVGSAGGSAGGSAGG [r11_66_JUSTAS] | 0.139 ± 0.13 | 0.706 ± 0.038 |
| SAGGSAGGSAGGMTIKEIMKRFPGGGEIDITEIPGDRITIEMRFPNGNNRRRTIPPDEISAGGSAGGSAGGS [r10_612_TrROS] | -0.582 ± 0.33 | -0.04 ± 0.34 |
| SAGGSAGGSAGGALVVEVEVEGERRTLVVPVPDEIPPGAEEVAKKLGLKDAKVKIAPLDLSAGGSAGGSAGG [r11_219_TrMRF] | < -1 | -0.662 ± 0.53 |
| SAGLTAKITSVTEENGTLTVTVEVTAPDGSTFTFTATFRIEPAPAPPVKVTVETDADGNVTVTVETLDSAGG [r19_172_TrROS_Hall] | > 6 | 5.13 ± 0.28 |
| SAGGSAGGSAGGKNMQEVPFPIEIKDPKNGKKIKIPVEVRRNPDDGKYQITPEALEELIKSAGGSAGGSAGG [r7_557_TrROS] | < -1 | -0.809 ± 0.31 |
| SAGGSAGGSMPPEELRKKILEDPNVEVLSIEPPGPEVTLITTKYPRETETPTTETVTEKLPVPLSAGGSAGG [r6_154_JUSTAS] | -0.568 ± 0.33 | -0.392 ± 0.33 |
| SAGGSAGGSAGKKVVTIDIPIDNPEELEVAEEIAREAAKELGVPPEEIPVTWEGNYLRIESAGGSAGGSAGG [r11_218_TrMRF] | < -1 | -0.423 ± 0.075 |
| SAGGSAGGSAMKEYVVASRGYDPATGLYSLTIESSEGKKVKNVTFDDPSNPEKAINEAIAKESAGGSAGGSA [r18_479_JUSTAS] | -0.829 ± 0.35 | -0.713 ± 0.34 |
| SAGGSDLITTEETFVGPGGEITLRTTTVDPKTGKTTTTTTTIPVIKGPPSDPAKIEAELKKRGIPLSAGGSA [r2_304_JUSTAS] | -0.799 ± 0.29 | -0.186 ± 0.12 |
| SAGMVKVSLEKNPNGTPVVTVDVNEEGGPPVTVTLPVDPNETLSKVSAVLKKEGYPLPAGKKISELLSSAGG [r19_263_JUSTAS] | < -1 | -0.72 ± 0.25 |
| SAGGSAKLEINIIIPGMPPERAKRKARNIAAELRKQGLPKENIKDVDIKVIVMPWRRDPDNKWKPMSAGGSA [r15_684_TrROS] | -0.0462 ± 0.12 | 0.506 ± 0.079 |
| SAGGSAGGSAGMIVIETPLSEYEKLKSPDIEVLEKSEGKVVIEIKVPPEPFYDEEGKPLKSAGGSAGGSAGG [r11_828_JUSTAS] | 0.286 ± 0.13 | 0.804 ± 0.034 |
| SAGGWRMEIEFPGINPEELRKAIAEAPGNKDVDVDVERIPKDGSVKIEMHGNNPADRKRIQKAVKKAFSAGG [r13_580_TrROS] | < -1 | -0.928 ± 0.47 |
| MEFTITVEYDEETNELTVTITYPGYTIEIRIDPDGRIRVEVRMDPGMSEEERKRMQELAEELAKKLEEALKS [r1_468_TrROS_Hall] | > 6 | 4.33 ± 0.69 |
| SAGGSAGGSAGGTEEEALEKAERLAKELGVDLKDVKILNPPDKFEAVFTIPGTGENIKLSAGGSAGGSAGGS [r10_161_JUSTAS] | -0.601 ± 0.97 | -0.505 ± 0.46 |
| SAGGLDSAPPVEVKVEVEEEKTKDPNSDSEVTKYKITVTTTVGGTPIVTEEESIVYKKPDGTIIVEKKSAGG [r19_260_JUSTAS] | -0.242 ± 0.96 | -0.403 ± 0.28 |

| Sequence | folding stability dG unfold [1] [kcal/mol] | folding stability dG unfold [2] [kcal/mol] |
| --- | --- | --- |
| SAGSPIDLGEVEVEEKPVETDPATGLTTTETVITAPDGRPVFVKYTTKDPATGTTTVTETPVGVDPELTSAG [r5_200_JUSTAS] | < -1 | -0.556 ± 0.096 |
| SAGGSAGGKIRILEEEEDPANGERRLMVMVHNPKGKPHQYPVPLDDADEILEHLPPGMPVEIYPSAGGSAGG [r6_113_TrROS] | -0.514 ± 0.97 | 0.362 ± 0.097 |
| SAGVTVERKPGDGSLTVTVPADDGPLTIEVDLLPNTGTLKATVTYDDGTPATYTFPGGTLEDIIERLHSAGG [r19_159_TrMRF] | -0.153 ± 0.22 | -0.0867 ± 0.088 |
| SAGGSAGGSAKKTAVIELIDPKDPKPKTITIPFDLKDGKTSLEELKKLVPDYTITSIAVFDDSAGGSAGGSA [r18_494_TrMRF] | < -1 | -0.182 ± 0.15 |
| SAGGSAMKTLTATFSDGRSVTVEPENRTVTVSTPESSISTIPVPPDVPEVTITTPSGVTITLTVDTSAGGSA [r2_385_JUSTAS] | -0.107 ± 0.12 | 0.287 ± 0.083 |
| SAGGSMVTETLSVEETVEPLPDGLVRVPVRTEIRVTRKDPTTGKWTTELRTEEVVLVVPASGLEAASAGGSA [r2_184_JUSTAS] | 0.195 ± 0.053 | 0.804 ± 0.02 |
| SAGGSAGGSAGGMPLNFSTVETEELPELGATVTTSTAPGYILTETRTPEGVEVQRYPALLSAGGSAGGSAGG [r7_280_JUSTAS] | 0.108 ± 0.2 | 0.86 ± 0.068 |
| SAGGSAGGSAGGMVRFPDGKEVETESEEELEELLKGVPVEEITIEDPEEKGEKKIPVKLSAGGSAGGSAGGS [r10_1191_JUSTAS] | -0.942 ± 0.48 | 0.137 ± 0.044 |
| SAGGSGLRVGDVVEAEGVVVPDPETRLRRAVFRFPDFVVVEVVEVPEDVAPDEEIPFPVRIDAIVPSAGGSA [r2_113_TrMRF] | -0.645 ± 0.17 | -0.512 ± 0.19 |
| SMLTSPDGTSVTIETKVSPSAGPLPPFFEQTYDPSKDTITVNAPASPEEVAAIRAAPGLETLAVTFTPAESA [r9_827_JUSTAS] | < -1 | -0.874 ± 0.23 |
| SPKIEIEPMPPNMFIAKIRDPEKNKKVSIHIPPNMPPGQPMQVYDPDKPKWVPFNEIEELLKKGLPVEIYSA [r9_250_TrROS] | -0.496 ± 0.98 | 0.0989 ± 0.23 |
| SAGSAKELAKEIADTIADEMQDRHPGFKPTEVEVKEIEVNPENGWVKINIEMRFPNGKPIWKPEITIPSAGG [r19_53_TrROS] | -0.557 ± 0.25 | -0.0323 ± 0.058 |
| SAGGMKIRLDNGKEIEINQSPGYMSIQIRPPDDGKKREYPFPMPDGENSMEDFVNEIANHGRITEIEPSAGG [r13_579_TrROS] | -0.249 ± 0.23 | 0.522 ± 0.075 |
| SAGGSAGGSAGMPPGSIKVTVTSTAPDGTPSTTESTIPPSQVDKVKAEAAAKGWTVSFTGSAGGSAGGSAGG [r11_603_JUSTAS] | 0.245 ± 0.068 | 0.654 ± 0.034 |
| SAGGSAGGSAGGSPLIVEFKGDELRNTIPSGFEVLSEERDPELGYVRAALRALGSGETLSAGGSAGGSAGGS [r4_435_TrMRF] | < -1 | -0.707 ± 0.27 |
| SAGGSAGGSAGGMITIEEDPNKDLKTVTVYVPEKPKWVTVDVKPSETIEEALAKAEELLKSAGGSAGGSAGG [r7_138_JUSTAS] | -0.514 ± 0.18 | 0.0308 ± 0.064 |
| SAGGDPGAEKIGTKTYPVGDKELTIETYRLPDPDELKVVVTDPTDGKTTPITVSLSEPPNIPVAELLSAGGS [r16_768_JUSTAS] | < -1 | -0.276 ± 0.16 |
| SAGGSAGGSAGGYFIRYPGNGREIMIPPDDIEDFLDTLPPGFPPENVKIYPFDPNGKPISAGGSAGGSAGGS [r10_13_TrROS] | < -1 | -0.242 ± 0.2 |
| SAGSTVEVLEERPLEDGSVLVRVRVDDAAPDGSPVAVVDVLVLPGGEAVMTFPDGTPVRLPLSELGLPPSAG [r5_137_JUSTAS] | -0.319 ± 0.2 | 0.108 ± 0.14 |
| SAGGHRMDIQFDGSPDKIEEIQKKIHKKWPDYKVDDIEVNPGNPDQVTIRIEMDNGIPMNEIQEALMSAGGS [r16_180_TrROS] | < -1 | -1.32 ± 0.22 |
| SAGGSAGGSAGPKPIRIKVKWRNEKDGEKRKVTIPIPPGMPLEELIKNADPNQVRDVEIVSAGGSAGGSAGG [r11_386_TrROS] | < -1 | -0.276 ± 0.1 |
| SAGGSAGGSAGQPKIGVLKEELIKETYTRPVPDSDETVKEERIVVKIIKKKLNIPENLLLSAGGSAGGSAGG [r17_530_JUSTAS] | < -1 | -0.447 ± 0.27 |
| SAGGSAGGSAGMKIIVKSKEEAEKIAKEIAKKLGIEKKIKKIEIIVIPYKKTKDGKIEKISAGGSAGGSAGG [r17_237_TrROS_Hall] | -0.184 ± 0.61 | 0.36 ± 0.19 |
